In paper doi:10.1101/2025.08.14.670383:

Target: ADGRG1_h1h2: ADGRG1 receptor bearing the designed GAIN domain SS_h1h2, on HEK293T cells (human) (UniProt Q9Y653)
Chain of UniProt Q9Y653 (Q9Y653 26-693 V174C/S218C): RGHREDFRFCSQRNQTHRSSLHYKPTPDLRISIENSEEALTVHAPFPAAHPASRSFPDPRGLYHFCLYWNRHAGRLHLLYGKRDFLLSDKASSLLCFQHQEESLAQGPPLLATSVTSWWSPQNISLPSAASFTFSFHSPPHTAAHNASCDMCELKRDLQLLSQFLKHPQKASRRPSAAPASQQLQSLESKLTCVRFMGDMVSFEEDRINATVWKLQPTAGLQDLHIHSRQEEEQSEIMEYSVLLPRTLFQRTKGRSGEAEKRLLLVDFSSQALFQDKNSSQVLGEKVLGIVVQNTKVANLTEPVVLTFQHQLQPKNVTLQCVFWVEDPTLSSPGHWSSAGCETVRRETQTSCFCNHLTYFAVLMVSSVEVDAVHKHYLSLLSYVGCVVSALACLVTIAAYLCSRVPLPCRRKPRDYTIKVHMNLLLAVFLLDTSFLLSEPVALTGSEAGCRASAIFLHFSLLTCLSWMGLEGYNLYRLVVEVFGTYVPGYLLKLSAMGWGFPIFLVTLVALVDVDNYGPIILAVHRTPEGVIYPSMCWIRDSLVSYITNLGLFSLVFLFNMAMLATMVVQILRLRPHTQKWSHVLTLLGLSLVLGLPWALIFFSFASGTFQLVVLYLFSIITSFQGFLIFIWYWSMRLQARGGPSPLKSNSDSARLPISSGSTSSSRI

Col3-induced increase in activity, SRE-luciferase assay in HEK293T cells: > 2 fold
Substance: native human collagen III (from UniProt P02461 154-1221) (ligand)
